From paper PMC10945824 (Proceedings of the National Academy of Sciences of the …, 2024) come the findings set out here.

Read-outs that look alike come from different tables or passages of the source.

Data set [1] deals with the molecule itself. Kind of data set: negative-stain TEM.
The data set “cryo-EM structure” deals with the molecule itself. Kind of data set: cryo-EM structure.
Data set [2] deals with the molecule itself. The data set is described as follows: negative-stain TEM. The source holds these as a separate data set.

B1: human paraneoplastic antigen Ma2 (PNMA2), recombinant, wild type (natural protein, UniProt Q9UL42 1-364, looked up)
chain: MALALLEDWCRIMSVDEQKSLMVTGIPADFEEAEIQEVLQETLKSLGRYRLLGKIFRKQENANAVLLELLEDTDVSAIPSEVQGKGGVWKVIFKTPNQDTEFLERLNLFLEKEGQTVSGMFRALGQEGVSPATVPCISPELLAHLLGQAMAHAPQPLLPMRYRKLRVFSGSAVPAPEEESFEVWLEQATEIVKEWPVTEAEKKRWLAESLRGPALDLMHIVQADNPSISVEECLEAFKQVFGSLESRRTAQVRYLKTYQEEGEKVSAYVLRLETLLRRAVEKRAIPRRIADQVRLEQVMAGATLNQMLWCRLRELKDQGPPPSFLELMKVIREEEEEEASFENESIEEPEERDGYGRWNHEGDD
Usually stoichiometry N stands for a count of units in the complex or per binding partner. Consider B1, for which, in “negative-stain TEM [1]”, the binding result was “binds”. The “stoichiometry N” value in the data set “cryo-EM structure” was found to be 60.

B2: HA-tagged human PNMA2 secreted by HEK293FT cells (natural protein, UniProt Q9UL42 1-364, looked up)
chain: MALALLEDWCRIMSVDEQKSLMVTGIPADFEEAEIQEVLQETLKSLGRYRLLGKIFRKQENANAVLLELLEDTDVSAIPSEVQGKGGVWKVIFKTPNQDTEFLERLNLFLEKEGQTVSGMFRALGQEGVSPATVPCISPELLAHLLGQAMAHAPQPLLPMRYRKLRVFSGSAVPAPEEESFEVWLEQATEIVKEWPVTEAEKKRWLAESLRGPALDLMHIVQADNPSISVEECLEAFKQVFGSLESRRTAQVRYLKTYQEEGEKVSAYVLRLETLLRRAVEKRAIPRRIADQVRLEQVMAGATLNQMLWCRLRELKDQGPPPSFLELMKVIREEEEEEASFENESIEEPEERDGYGRWNHEGDD
For B2, in “negative-stain TEM [2]”, the binding result was “binds”.
